From article PMC3708727 (Molecular Biology of the Cell, 2013)

Experiments:
[1] = biological target: T1, histidine (His)-tagged full-length dAbp1 (Dictyostelium discoideum, UniProt Q557J6 1-481); experiment: pull-down
T1 sequence (looked up): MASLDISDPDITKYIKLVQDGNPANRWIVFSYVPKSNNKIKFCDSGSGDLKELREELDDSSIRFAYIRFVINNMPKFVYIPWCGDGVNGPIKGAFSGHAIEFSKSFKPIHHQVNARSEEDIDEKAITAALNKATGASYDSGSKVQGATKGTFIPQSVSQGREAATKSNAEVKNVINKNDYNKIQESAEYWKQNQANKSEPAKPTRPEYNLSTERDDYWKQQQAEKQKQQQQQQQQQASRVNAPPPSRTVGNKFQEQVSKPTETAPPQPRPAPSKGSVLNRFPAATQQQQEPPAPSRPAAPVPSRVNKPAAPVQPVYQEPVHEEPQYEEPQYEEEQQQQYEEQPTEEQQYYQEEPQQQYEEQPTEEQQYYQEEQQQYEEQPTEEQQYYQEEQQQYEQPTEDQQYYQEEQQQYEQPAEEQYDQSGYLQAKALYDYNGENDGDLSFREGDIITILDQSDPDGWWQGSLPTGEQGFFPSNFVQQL

[2] = biological target: T2, His-tagged dAbp1-237-313 fragment (Dictyostelium discoideum, UniProt Q557J6 237-313); experiment: pull-down
T2 sequence (looked up): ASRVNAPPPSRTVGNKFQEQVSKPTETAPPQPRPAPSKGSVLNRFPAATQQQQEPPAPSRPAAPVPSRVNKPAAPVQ

[3] = biological target: rabbit muscle actin filaments (rabbit, UniProt P68135 1-377); experiment: co-sedimentation

B1: GST-dAbp1-SH3 domain fusion protein (domain or fragment, Dictyostelium discoideum, UniProt Q557J6 426-481, looked up)
chain: QAKALYDYNGENDGDLSFREGDIITILDQSDPDGWWQGSLPTGEQGFFPSNFVQQL
B1: binds [1]; binds [2].

B2: GST-dAbp1 (natural protein)
chain: MASLDISDPDITKYIKLVQDGNPANRWIVFSYVPKSNNKIKFCDSGSGDLKELREELDDSSIRFAYIRFVINNMPKFVYIPWCGDGVNGPIKGAFSGHAIEFSKSFKPIHHQVNARSEEDIDEKAITAALNKATGASYDSGSKVQGATKGTFIPQSVSQGREAATKSNAEVKNVINKNDYNKIQESAEYWKQNQANKSEPAKPTRPEYNLSTERDDYWKQQQAEKQKQQQQQQQQQASRVNAPPPSRTVGNKFQEQVSKPTETAPPQPRPAPSKGSVLNRFPAATQQQQEPPAPSRPAAPVPSRVNKPAAPVQPVYQEPVHEEPQYEEPQYEEEQQQQYEEQPTEEQQYYQEEPQQQYEEQPTEEQQYYQEEQQQYEEQPTEEQQYYQEEQQQYEQPTEDQQYYQEEQQQYEQPAEEQYDQSGYLQAKALYDYNGENDGDLSFREGDIITILDQSDPDGWWQGSLPTGEQGFFPSNFVQQL
In the case of B2, the “Kd in the presence of an equimolar amount of GST-PakB-1-120” value [3] is reported as 1.1 ± 0.4 µM.
